Patent US20040063656A1

Target: wild type human VEGFR-3 (Flt4), long form (human) (UniProt P35916)
Experiment: cell-based or functional assay

Chain of UniProt P35916 (P35916 25-1363 limits assumed): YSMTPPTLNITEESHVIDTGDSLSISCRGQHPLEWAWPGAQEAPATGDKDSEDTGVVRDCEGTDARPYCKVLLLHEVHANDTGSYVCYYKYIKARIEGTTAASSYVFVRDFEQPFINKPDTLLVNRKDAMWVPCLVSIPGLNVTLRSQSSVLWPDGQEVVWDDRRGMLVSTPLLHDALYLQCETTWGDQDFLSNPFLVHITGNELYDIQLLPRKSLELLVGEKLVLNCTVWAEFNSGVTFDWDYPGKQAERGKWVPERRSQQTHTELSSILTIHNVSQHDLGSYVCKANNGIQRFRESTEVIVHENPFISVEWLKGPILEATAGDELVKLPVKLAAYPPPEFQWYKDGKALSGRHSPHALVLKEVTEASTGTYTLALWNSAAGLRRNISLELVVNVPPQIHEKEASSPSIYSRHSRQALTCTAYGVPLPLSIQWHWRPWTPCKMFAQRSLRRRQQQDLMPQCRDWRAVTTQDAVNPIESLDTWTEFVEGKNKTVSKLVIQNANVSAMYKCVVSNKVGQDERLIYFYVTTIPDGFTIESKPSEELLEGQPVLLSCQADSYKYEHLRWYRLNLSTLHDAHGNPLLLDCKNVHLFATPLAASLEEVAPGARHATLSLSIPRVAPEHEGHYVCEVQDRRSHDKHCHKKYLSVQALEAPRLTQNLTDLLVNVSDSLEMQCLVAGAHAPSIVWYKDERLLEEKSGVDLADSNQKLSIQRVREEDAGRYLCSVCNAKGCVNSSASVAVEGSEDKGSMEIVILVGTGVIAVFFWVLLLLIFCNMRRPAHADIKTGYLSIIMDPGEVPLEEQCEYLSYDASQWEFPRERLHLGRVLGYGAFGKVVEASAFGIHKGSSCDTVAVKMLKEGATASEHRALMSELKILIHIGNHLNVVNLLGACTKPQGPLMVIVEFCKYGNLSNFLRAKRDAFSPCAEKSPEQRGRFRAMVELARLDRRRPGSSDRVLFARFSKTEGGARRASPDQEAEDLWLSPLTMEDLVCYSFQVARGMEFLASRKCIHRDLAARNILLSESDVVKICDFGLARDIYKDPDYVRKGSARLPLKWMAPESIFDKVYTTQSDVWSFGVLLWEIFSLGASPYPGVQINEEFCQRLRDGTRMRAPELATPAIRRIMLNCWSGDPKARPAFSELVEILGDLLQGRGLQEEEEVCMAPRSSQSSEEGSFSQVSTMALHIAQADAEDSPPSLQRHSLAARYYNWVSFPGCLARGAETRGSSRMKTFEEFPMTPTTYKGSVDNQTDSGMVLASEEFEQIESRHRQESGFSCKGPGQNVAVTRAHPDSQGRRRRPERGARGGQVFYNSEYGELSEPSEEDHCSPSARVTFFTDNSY

A tyrosine phosphorylation of VEGFR-3 (immunoprecipitation and anti-phosphotyrosine Western blot), 293T cells co-transfected with 75% of WT and 25% of mutant plasmid of 90 % decrease and a tyrosine phosphorylation of VEGFR-3 (immunoprecipitation and anti-phosphotyrosine Western blot), wild type and mutant vectors co-transfected at a 1:1 ratio (% of the wild type alone) of 4 were found for “P1114L mutant of human VEGFR-3 (long form) (from UniProt P35916 25-1363) (receptor)” in this work.
